Data as given in publication PMC3226482 (Molecular Biology of the Cell, 2011).

T1: karyopherin β2 (human, UniProt Q92973 1-898)
T1 sequence: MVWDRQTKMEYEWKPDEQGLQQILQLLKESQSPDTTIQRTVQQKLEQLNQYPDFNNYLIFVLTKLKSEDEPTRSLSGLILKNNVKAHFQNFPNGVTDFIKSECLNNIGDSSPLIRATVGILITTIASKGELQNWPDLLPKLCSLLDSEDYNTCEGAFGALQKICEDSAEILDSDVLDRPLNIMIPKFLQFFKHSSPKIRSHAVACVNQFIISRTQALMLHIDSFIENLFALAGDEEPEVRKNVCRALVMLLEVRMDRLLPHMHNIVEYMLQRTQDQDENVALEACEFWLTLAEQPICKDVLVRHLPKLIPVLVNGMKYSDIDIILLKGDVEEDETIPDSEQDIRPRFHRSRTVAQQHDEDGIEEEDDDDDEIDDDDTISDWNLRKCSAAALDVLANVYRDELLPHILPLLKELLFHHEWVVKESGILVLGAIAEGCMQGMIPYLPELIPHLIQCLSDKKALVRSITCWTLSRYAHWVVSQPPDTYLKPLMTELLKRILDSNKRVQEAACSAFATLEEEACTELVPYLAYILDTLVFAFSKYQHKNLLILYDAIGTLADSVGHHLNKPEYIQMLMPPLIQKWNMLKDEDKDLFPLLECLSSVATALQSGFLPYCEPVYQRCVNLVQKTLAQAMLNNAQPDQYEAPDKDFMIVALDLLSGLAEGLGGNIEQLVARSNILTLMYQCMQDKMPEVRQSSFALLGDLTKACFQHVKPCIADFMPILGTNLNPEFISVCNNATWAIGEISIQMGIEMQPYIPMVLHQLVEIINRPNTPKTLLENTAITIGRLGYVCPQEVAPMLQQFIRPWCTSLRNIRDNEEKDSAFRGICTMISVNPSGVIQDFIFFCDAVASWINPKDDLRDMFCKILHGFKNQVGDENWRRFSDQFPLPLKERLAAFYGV

T2: GST-Imp11 (human, UniProt Q9UI26 1-975)
T2 sequence: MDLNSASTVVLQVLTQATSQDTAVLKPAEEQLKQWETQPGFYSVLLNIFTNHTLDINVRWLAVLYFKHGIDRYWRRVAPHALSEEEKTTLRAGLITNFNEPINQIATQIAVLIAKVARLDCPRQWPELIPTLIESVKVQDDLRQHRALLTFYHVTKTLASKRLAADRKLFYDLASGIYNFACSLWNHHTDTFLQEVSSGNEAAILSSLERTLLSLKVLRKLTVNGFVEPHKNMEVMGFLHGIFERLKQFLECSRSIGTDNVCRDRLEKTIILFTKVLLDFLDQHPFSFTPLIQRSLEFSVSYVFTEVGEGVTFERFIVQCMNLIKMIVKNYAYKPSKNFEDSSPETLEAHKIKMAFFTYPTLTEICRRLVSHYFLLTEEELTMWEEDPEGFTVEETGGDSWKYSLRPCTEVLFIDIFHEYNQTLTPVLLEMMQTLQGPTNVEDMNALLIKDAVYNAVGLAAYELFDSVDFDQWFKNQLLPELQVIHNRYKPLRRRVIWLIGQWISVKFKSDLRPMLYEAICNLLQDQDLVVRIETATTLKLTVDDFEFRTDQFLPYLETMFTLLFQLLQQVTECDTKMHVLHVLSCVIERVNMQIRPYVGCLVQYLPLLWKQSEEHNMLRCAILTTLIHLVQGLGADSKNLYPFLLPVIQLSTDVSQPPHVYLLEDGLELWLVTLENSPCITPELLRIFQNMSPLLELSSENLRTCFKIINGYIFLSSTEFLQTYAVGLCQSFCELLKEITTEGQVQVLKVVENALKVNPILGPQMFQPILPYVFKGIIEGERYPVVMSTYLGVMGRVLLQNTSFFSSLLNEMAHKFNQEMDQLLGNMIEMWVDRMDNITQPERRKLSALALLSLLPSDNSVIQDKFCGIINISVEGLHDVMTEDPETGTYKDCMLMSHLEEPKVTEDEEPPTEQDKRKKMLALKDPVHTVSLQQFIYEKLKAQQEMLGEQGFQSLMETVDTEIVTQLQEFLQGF

T3: GST-Imp4 (human, UniProt Q8TEX9 1-1081)
T3 sequence: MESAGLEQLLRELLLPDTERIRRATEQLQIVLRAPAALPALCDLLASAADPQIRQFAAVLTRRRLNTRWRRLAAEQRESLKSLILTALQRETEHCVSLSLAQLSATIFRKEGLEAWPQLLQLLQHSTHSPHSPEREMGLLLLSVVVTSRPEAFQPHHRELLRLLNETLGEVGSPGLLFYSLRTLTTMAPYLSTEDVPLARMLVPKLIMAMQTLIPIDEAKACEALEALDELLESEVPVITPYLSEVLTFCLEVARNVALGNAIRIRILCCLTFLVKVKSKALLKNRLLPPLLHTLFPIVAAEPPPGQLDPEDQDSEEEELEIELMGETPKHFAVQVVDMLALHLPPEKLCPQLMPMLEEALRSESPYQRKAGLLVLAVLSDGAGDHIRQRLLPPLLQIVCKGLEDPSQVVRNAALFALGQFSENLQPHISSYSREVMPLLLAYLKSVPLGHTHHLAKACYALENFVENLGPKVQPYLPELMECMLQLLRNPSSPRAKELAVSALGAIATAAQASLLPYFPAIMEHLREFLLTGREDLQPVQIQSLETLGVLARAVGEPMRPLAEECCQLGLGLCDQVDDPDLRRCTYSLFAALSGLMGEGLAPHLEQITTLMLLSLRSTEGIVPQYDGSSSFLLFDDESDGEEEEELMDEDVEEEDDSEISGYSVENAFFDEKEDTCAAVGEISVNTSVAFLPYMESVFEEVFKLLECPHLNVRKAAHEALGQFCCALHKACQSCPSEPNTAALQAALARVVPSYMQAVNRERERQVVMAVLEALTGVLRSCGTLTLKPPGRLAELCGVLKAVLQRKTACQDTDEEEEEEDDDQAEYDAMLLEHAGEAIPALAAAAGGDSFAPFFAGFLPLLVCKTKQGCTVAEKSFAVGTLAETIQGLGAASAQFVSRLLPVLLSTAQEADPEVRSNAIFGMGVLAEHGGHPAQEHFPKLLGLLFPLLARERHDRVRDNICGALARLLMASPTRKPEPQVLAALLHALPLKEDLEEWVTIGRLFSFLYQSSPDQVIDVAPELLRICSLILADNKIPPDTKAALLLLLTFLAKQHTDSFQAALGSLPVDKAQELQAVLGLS

T4: importin 11 (human, UniProt Q9UI26 1-975)
T4 sequence: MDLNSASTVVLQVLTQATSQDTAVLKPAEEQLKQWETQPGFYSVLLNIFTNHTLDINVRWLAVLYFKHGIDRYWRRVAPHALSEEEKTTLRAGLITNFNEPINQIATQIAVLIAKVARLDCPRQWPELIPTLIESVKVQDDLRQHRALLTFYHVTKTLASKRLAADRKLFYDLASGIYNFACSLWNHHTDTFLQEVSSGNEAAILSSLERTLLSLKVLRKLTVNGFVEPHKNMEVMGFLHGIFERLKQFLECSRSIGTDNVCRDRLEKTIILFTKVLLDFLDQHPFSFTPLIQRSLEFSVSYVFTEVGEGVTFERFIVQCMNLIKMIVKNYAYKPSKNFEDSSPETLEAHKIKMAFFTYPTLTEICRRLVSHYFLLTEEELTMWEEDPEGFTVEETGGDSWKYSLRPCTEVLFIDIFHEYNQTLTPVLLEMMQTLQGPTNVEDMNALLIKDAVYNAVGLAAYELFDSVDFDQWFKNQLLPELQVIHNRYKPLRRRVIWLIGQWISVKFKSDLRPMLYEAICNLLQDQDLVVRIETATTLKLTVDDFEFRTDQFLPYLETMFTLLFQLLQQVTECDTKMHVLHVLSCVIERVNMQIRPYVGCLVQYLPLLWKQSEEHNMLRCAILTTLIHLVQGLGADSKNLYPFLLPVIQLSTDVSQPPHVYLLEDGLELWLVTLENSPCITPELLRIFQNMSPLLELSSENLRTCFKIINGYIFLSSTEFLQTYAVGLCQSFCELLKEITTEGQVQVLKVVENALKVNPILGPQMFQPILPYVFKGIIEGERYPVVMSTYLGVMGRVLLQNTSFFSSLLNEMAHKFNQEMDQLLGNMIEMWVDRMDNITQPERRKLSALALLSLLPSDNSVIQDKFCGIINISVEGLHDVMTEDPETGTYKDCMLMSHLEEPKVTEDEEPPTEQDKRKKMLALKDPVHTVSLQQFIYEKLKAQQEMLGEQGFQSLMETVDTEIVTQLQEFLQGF

B1: importin 4 (natural protein)
chain: MESAGLEQLLRELLLPDTERIRRATEQLQIVLRAPAALPALCDLLASAADPQIRQFAAVLTRRRLNTRWRRLAAEQRESLKSLILTALQRETEHCVSLSLAQLSATIFRKEGLEAWPQLLQLLQHSTHSPHSPEREMGLLLLSVVVTSRPEAFQPHHRELLRLLNETLGEVGSPGLLFYSLRTLTTMAPYLSTEDVPLARMLVPKLIMAMQTLIPIDEAKACEALEALDELLESEVPVITPYLSEVLTFCLEVARNVALGNAIRIRILCCLTFLVKVKSKALLKNRLLPPLLHTLFPIVAAEPPPGQLDPEDQDSEEEELEIELMGETPKHFAVQVVDMLALHLPPEKLCPQLMPMLEEALRSESPYQRKAGLLVLAVLSDGAGDHIRQRLLPPLLQIVCKGLEDPSQVVRNAALFALGQFSENLQPHISSYSREVMPLLLAYLKSVPLGHTHHLAKACYALENFVENLGPKVQPYLPELMECMLQLLRNPSSPRAKELAVSALGAIATAAQASLLPYFPAIMEHLREFLLTGREDLQPVQIQSLETLGVLARAVGEPMRPLAEECCQLGLGLCDQVDDPDLRRCTYSLFAALSGLMGEGLAPHLEQITTLMLLSLRSTEGIVPQYDGSSSFLLFDDESDGEEEEELMDEDVEEEDDSEISGYSVENAFFDEKEDTCAAVGEISVNTSVAFLPYMESVFEEVFKLLECPHLNVRKAAHEALGQFCCALHKACQSCPSEPNTAALQAALARVVPSYMQAVNRERERQVVMAVLEALTGVLRSCGTLTLKPPGRLAELCGVLKAVLQRKTACQDTDEEEEEEDDDQAEYDAMLLEHAGEAIPALAAAAGGDSFAPFFAGFLPLLVCKTKQGCTVAEKSFAVGTLAETIQGLGAASAQFVSRLLPVLLSTAQEADPEVRSNAIFGMGVLAEHGGHPAQEHFPKLLGLLFPLLARERHDRVRDNICGALARLLMASPTRKPEPQVLAALLHALPLKEDLEEWVTIGRLFSFLYQSSPDQVIDVAPELLRICSLILADNKIPPDTKAALLLLLTFLAKQHTDSFQAALGSLPVDKAQELQAVLGLS

Assays:
importin β [1] = molecular target: T5, importin β (human, UniProt Q14974 1-876); assay: ITC
karyopherin β2 = molecular target: T1, karyopherin β2; assay: ITC
GST-Imp11 = molecular target: T2, GST-Imp11; assay: pull-down
GST-Imp4 = molecular target: T3, GST-Imp4; assay: pull-down
[2] = molecular target: RanGTP (recombinant human Ran loaded with GTP) (human, UniProt P62826 1-216); assay: pull-down
importin β [3] = molecular target: T5, importin β; assay: pull-down
importin 4 = molecular target: B1; assay: pull-down
importin 11 = molecular target: T4, importin 11; assay: pull-down

T5 sequence (Q14974 whole entry): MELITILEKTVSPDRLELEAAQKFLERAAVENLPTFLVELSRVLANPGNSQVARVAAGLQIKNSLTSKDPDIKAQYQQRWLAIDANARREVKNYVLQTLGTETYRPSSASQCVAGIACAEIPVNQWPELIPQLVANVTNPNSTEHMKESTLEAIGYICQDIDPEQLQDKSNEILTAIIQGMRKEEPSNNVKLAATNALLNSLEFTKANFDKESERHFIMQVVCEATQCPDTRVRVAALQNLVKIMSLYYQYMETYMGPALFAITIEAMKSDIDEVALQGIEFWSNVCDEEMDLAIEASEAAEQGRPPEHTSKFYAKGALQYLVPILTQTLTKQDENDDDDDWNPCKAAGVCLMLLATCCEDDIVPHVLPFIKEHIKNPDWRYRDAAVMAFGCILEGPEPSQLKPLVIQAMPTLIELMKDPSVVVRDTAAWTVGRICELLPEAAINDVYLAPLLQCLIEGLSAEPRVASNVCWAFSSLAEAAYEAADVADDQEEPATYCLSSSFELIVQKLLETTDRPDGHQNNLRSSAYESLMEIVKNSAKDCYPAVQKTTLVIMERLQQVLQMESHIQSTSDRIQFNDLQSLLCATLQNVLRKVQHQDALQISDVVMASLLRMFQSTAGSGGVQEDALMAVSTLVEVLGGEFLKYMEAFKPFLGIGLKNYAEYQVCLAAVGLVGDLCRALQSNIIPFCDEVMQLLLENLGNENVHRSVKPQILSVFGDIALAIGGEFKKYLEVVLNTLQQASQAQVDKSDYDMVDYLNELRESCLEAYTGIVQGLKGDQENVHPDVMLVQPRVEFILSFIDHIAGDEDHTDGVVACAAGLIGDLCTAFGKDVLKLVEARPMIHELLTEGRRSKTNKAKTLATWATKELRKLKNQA

Binder	dH (two-site model, site 1) (importin β [1])	dH (two-site model, site 2) (importin β [1])	Kd (karyopherin β2)	dH (karyopherin β2)	also measured
MBP-hsNXF1-N (domain or fragment) MADEGKSYSEHDDERVNFPQRKKKGRGPFRWKYGEGNRRSGRGGSGIRSSRLEEDDGDVAMSDAQDGPRVRYNPYTTRPNRRGDTWHDRDRIHVTVRRDRAPPERGGAG	-7.51 kcal/mol	-4.6 kcal/mol	40.5 nM	-17.2 kcal/mol	binding result (GST-Imp11): binds; binding result (GST-Imp4): binds
MBP-hsNXF1-N(21-30/A) (domain or fragment) MADEGKSYSEHDDERVNFPQAAAAAAAAAAWKYGEGNRRSGRGGSGIRSSRLEEDDGDVAMSDAQDGPRVRYNPYTTRPNRRGDTWHDRDRIHVTVRRDRAPPERGGAG	–	–	128 nM	-13.9 kcal/mol	Kd (importin β [1]): 2230 nM; dH (importin β [1]): -2.48 kcal/mol
MBP-hsNXF1-N(71-75/A) (domain or fragment) MADEGKSYSEHDDERVNFPQRKKKGRGPFRWKYGEGNRRSGRGGSGIRSSRLEEDDGDVAMSDAQDGPRVAAAAATTRPNRRGDTWHDRDRIHVTVRRDRAPPERGGAG	-7.73 kcal/mol	-3.28 kcal/mol	215 nM	-12.9 kcal/mol	–
B1	–	–	–	–	binding result [2]: binds
GST-hsNXF1 (full-length human NXF1) (natural protein) MADEGKSYSEHDDERVNFPQRKKKGRGPFRWKYGEGNRRSGRGGSGIRSSRLEEDDGDVAMSDAQDGPRVRYNPYTTRPNRRGDTWHDRDRIHVTVRRDRAPPERGGAGTSQDGTSKNWFKITIPYGRKYDKAWLLSMIQSKCSVPFTPIEFHYENTRAQFFVEDASTASALKAVNYKILDRENRRISIIINSSAPPHTILNELKPEQVEQLKLIMSKRYDGSQQALDLKGLRSDPDLVAQNIDVVLNRRSCMAATLRIIEENIPELLSLNLSNNRLYRLDDMSSIVQKAPNLKILNLSGNELKSERELDKIKGLKLEELWLDGNSLCDTFRDQSTYISAIRERFPKLLRLDGHELPPPIAFDVEAPTTLPPCKGSYFGTENLKSLVLHFLQQYYAIYDSGDRQGLLDAYHDGACCSLSIPFIPQNPARSSLAEYFKDSRNVKKLKDPTLRFRLLKHTRLNVVAFLNELPKTQHDVNSFVVDISAQTSTLLCFSVNGVFKEVDGKSRDSLRAFTRTFIAVPASNSGLCIVNDELFVRNASSEEIQRAFAMPAPTPSSSPVPTLSPEQQEMLQAFSTQSGMNLEWSQKCLQDNNWDYTRSAQAFTHLKAKGEIPEVAFMK	–	–	–	–	binding result (importin β [3]): binds; binding result (importin 4): binds; binding result (importin 11): binds
